± gives the uncertainty stated by the source.

This data set can be described thus: amyloid nucleation score (Sup35N fusion, yeast selection) (log enrichment); library NNK1; higher = more nucleation; inactive = no reads after selection. The method in brief:
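Peptides of 20 random codons, each fused to Sup35N, were expressed in psi-negative yeast. Cells were induced with 100 μM copper sulfate for 24 hours and grown 7 days at 30°C on medium lacking adenine and uracil, and plasmid inserts before and after selection were Illumina-sequenced. Nucleation scores are DiMSum log enrichments of output over input reads, centred on the mode score of non-aggregating sequences, and sequences under 100 input reads were excluded.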
Take SCLVWLFRCFFRTYQYYEFI: the amyloid nucleation score worked out at 0.253 ± 0.24.

As to QGSYLHLSIKWLAFRSMS, the amyloid nucleation score is 0.19 ± 0.4.

SRFHVKLRLYFGSNIARTSK came in with an amyloid nucleation score of 6.618 ± 0.061.

In turn, FNIHCVSSA came in with an amyloid nucleation score of -0.015 ± 0.47.

As to RLMNFE, the amyloid nucleation score is -0.257 ± 0.43.

The substance RTLGFLRCFIITSVDSTKNA gave an amyloid nucleation score of 0.514 ± 0.8.

MMNVTVKRFRLDQHRLIDCA displayed an amyloid nucleation score of 0.383 ± 0.34.

VLCSSWLLWKDAI came in with an amyloid nucleation score of 0.218 ± 0.61.

In turn, CRYPWRH returned an amyloid nucleation score of -0.042 ± 0.6.

As to FLEFAYVVFKILEKNGGLSY, the amyloid nucleation score is -1.56 ± 0.86.

VVPFRLLDIQRNGCFDHGYP came in with an amyloid nucleation score of 0.142 ± 1.4.

Substance CNCMVLSPLDVMEPIAMGFQ returned an amyloid nucleation score of 0.455 ± 1.4.

As for QKGLDVVWYDTRSDMYNKIL, the amyloid nucleation score is -0.569 ± 0.7.

In turn, HCMGGNLFLF displayed an amyloid nucleation score of -0.463 ± 0.47.

Take ALGYGIWGSICNWVWDPFTA: the amyloid nucleation score entry is “inactive”.

LDVLWTGSRSAAA: the amyloid nucleation score is -0.05 ± 0.38.

On to IYPCICSRNFDPKLYKVNTR, for which the amyloid nucleation score was 0.605 ± 0.66.

YLAQIELRLV returned an amyloid nucleation score of 0.053 ± 0.79.

Consider VSLLVSICLLRLSLVSI, for which the amyloid nucleation score turned out to be 0.259 ± 0.58.

On to NLVFSMPAVWALVYVFTLFI, for which the amyloid nucleation score worked out at 1.51 ± 0.37.

Take STLFSWNRRNCDTHVLLVPW: the amyloid nucleation score entry was “inactive”.

Substance RKCEDGFWGKRDSATKGP had an amyloid nucleation score of 0.034 ± 0.29.

Take GYTLRPNERPKIRQV: the amyloid nucleation score worked out at 0.244 ± 0.63.

CSNLM came in with an amyloid nucleation score of -0.675 ± 0.66.

In turn, VNGARRQFRRLMPCLEAWVS returned an amyloid nucleation score of -0.372 ± 0.32.

Consider YFKSWTLNMCVGIKNK, for which the amyloid nucleation score turned out to be 4.66 ± 0.056.

MCDVERCRS: the amyloid nucleation score entry is “inactive”.

As for RDGIMYG, the amyloid nucleation score is 0.505 ± 0.39.

For TCFMNVSTQFCMSYKAQRSV, the amyloid nucleation score was 0.11 ± 0.59.

For GLMNLVSDRMSWLNEV, the amyloid nucleation score stood at 0.485 ± 0.84.

In turn, INIAMVMPLDGKLIQIDDTC gave an amyloid nucleation score of 0.177 ± 0.31.

With NTHILYVWSVMCGHMN, the amyloid nucleation score worked out at 3.35 ± 0.11.

FYFRNSSGF: the amyloid nucleation score was 2.49 ± 0.58.

Consider CYSWHGVYRGYVYSSYNNYV, for which the amyloid nucleation score amounted to 0.77 ± 0.52.

Regarding LLSQVTCGMQTVRRNGGIIR, the amyloid nucleation score is -0.195 ± 0.65.

In the case of ESFGRTISVTELSHMT, the amyloid nucleation score worked out at 0.487 ± 0.39.

The substance FSMGGYFLFLCNNFTLYHIS yielded an amyloid nucleation score of 7.598 ± 0.07.

The substance CNMKNDLTRGNSRFCNLCCN showed an amyloid nucleation score of 0.85 ± 0.53.

As to MDFDRCYSFRGMR, the amyloid nucleation score is -0.13 ± 0.47.

On to RRLYSKKILRDWLASSFSTD, for which the amyloid nucleation score result was “inactive”.

Substance VSWHHLVLLKGRLLEVSLSS came in with an amyloid nucleation score of -0.158 ± 0.28.

Substance VSVNRVFFVSWAISKTIS returned an amyloid nucleation score of -0.689 ± 0.55.

Take IVKGLSCKIDWLCASMHWMR: the amyloid nucleation score was 0.053 ± 0.36.

Consider LKSRGWYCFSNVTMYDLRME, for which the amyloid nucleation score came out at 3.42 ± 0.067.

With HFFNVYGSNMVISSWDSRCE, the amyloid nucleation score turned out to be 6.23 ± 0.076.

ATVDGRLIRDVSISCMGYDV yielded an amyloid nucleation score of -1.12 ± 2.4.

The substance HVLTQRRRMSFTVTRYHKRI had an amyloid nucleation score of 1.1 ± 0.52.

Regarding PSSGLFASLIVMSTVRTDLI, the amyloid nucleation score was -0.307 ± 0.38.

As to LVHRRFMESDISGLCCALLW, the amyloid nucleation score is -0.224 ± 1.4.

LRREVINWDQRFSFLKSFTW showed an amyloid nucleation score of 2.89 ± 0.15.

In turn, SLPSNHTVLWTVWMMVFGAR registered an amyloid nucleation score of -1.09 ± 0.96.

The substance WRNYYHWVTFRSDRLDRWFG registered an amyloid nucleation score of 1.85 ± 0.12.

WWLLSLP registered an amyloid nucleation score of 0.196 ± 0.26.

Substance DFSSNDGWV registered an amyloid nucleation score of 0.444 ± 0.47.

The substance FRLDNLRCTWVFRYPIGESS gave an amyloid nucleation score of 1.17 ± 0.73.

Consider LHRALGQSSWWARQW, for which the amyloid nucleation score was -0.13 ± 1.

The substance TCLADLDWSRGGGYYPHRLC returned an amyloid nucleation score of 0.372 ± 1.2.

For the substance IHLGCCMLFRRLGECRLVV, the amyloid nucleation score was -0.409 ± 0.29.

Substance MGRMS displayed an amyloid nucleation score of 0.22 ± 0.69.

Regarding PTKSIMLFCLGLFCGYLARA, the amyloid nucleation score came out at 2.91 ± 0.093.

YIYEDFGG showed an amyloid nucleation score of -0.407 ± 0.57.

SCETVWYVFNSAIACFTFRR yielded an amyloid nucleation score of 4.18 ± 0.15.

MQNRCSCWNFECRAPW: the amyloid nucleation score was 1.06 ± 0.33.

CSHGNYHITCCPHAFFMTAI gave an amyloid nucleation score of 4.91 ± 0.098.

WRSSWWWRCCYYSSSSMSRW showed an amyloid nucleation score of 1.12 ± 0.6.

Substance LFGTS showed an amyloid nucleation score of 0.501 ± 0.51.

Take VIYLGRIVVEGSNLTSKSSA: the amyloid nucleation score amounted to 0.85 ± 0.7.

Consider HLLSGMITCDDLHGCGLEGI, for which the amyloid nucleation score stood at 0.344 ± 0.35.

On to CCFSSMNFIS, for which the amyloid nucleation score was 4.04 ± 0.082.

The substance ISWVSPDLVLSYPVYQPDGL had an amyloid nucleation score of 1.93 ± 0.23.

In the case of YFLLLRFY, the amyloid nucleation score was 0.094 ± 0.44.

For DAQFGRHVLGLFFSRQEMLV, the amyloid nucleation score was -1.52 ± 1.2.

STTILCLLI yielded an amyloid nucleation score of 5.21 ± 0.061.

Substance CRWSVLGREFSSQFVCWEDW displayed an amyloid nucleation score of -0.59 ± 0.54.

SFTWRQNQVGNA: the amyloid nucleation score turned out to be 1.24 ± 0.4.

For the substance GASCTLISCLLLLHSAWSLS, the amyloid nucleation score turned out to be 0.237 ± 0.59.

RFHSFYNPQSSIDITLVGGF came in with an amyloid nucleation score of 4.65 ± 0.089.

FFDYGDAWSFHRMNNWDVLY showed an amyloid nucleation score of -0.935 ± 0.62.

The substance YCKLDVAVFCVQYNMSMSEQ returned an amyloid nucleation score of 5.46 ± 0.079.

Substance TMLMNEWGMLLNKWEWA returned an amyloid nucleation score of -0.398 ± 1.1.

RVRLTFCCLMAVRSRSMISK: the amyloid nucleation score was 0.436 ± 1.2.

IVRIESVEFSDYADFAFEVR: the amyloid nucleation score was 0.67 ± 0.59.

VSINGGEYMSEFAGICGPVD showed an amyloid nucleation score of 1.83 ± 0.46.

In the case of WLNHKRIVINTQLMLYSPGC, the amyloid nucleation score came to 4.68 ± 0.11.

Take IGCSI: the amyloid nucleation score result is “inactive”.

In turn, LFASESRWSRRYMFPWCRLC gave an amyloid nucleation score of -0.445 ± 0.91.

In the case of VCDFNVNYMSLVCEIHGT, the amyloid nucleation score came to 0.495 ± 0.56.

For the substance VFLRRVINTSFGSMMV, the amyloid nucleation score came out at 0.976 ± 1.1.

Substance LYYRKLVCWESGMA displayed an amyloid nucleation score of 0.318 ± 0.66.

Regarding DKFLRWVNNVCFKSWTAIAP, the amyloid nucleation score came to 0.609 ± 0.57.

IAIFKYVKRDSSGKNCLSRS came in with an amyloid nucleation score of -0.242 ± 0.25.

In turn, DQIGDYLRFACSDKDYS gave an amyloid nucleation score of 0.039 ± 0.76.

The substance SQAAGSVY showed an amyloid nucleation score of 0.026 ± 0.25.

AKSWCVSIKLVSDNSYLWET displayed an amyloid nucleation score of 1.12 ± 0.14.

RKTNLGWHSICRA displayed an amyloid nucleation score of -0.435 ± 0.28.

Regarding DLSSRFGRVETERGGKVKCQ, the amyloid nucleation score is -0.299 ± 1.1.

Turning to VIIYLMARSLKVAH, the amyloid nucleation score stood at 0.453 ± 0.38.

PNPWRLRWLLALDMNLVGLQ gave an amyloid nucleation score of 0.376 ± 1.1.

On to VGKVCRTFNRSMGETS, for which the amyloid nucleation score was determined as 0.439 ± 0.92.

Turning to IALRL, the amyloid nucleation score came out at 0.91 ± 0.4.

ESTSYCKSDYLVRFVFEDGL registered an amyloid nucleation score of -0.294 ± 0.39.

AYLYQSSYLVRC gave an amyloid nucleation score of 0.368 ± 0.36.

As for AWKGWFLMGYCGDRVMWDWR, the amyloid nucleation score is -0.131 ± 0.73.

Consider LYYIRVFRNSI, for which the amyloid nucleation score was -0.751 ± 0.46.

On to GYGWHLSANNPVSNIRCPRA, for which the amyloid nucleation score was -0.407 ± 0.42.

MVTTPFALTGFRDVMWCRAR registered an amyloid nucleation score of 3.09 ± 0.092.

Take MNRVDLCVNA: the amyloid nucleation score was found to be 0.438 ± 0.38.

Consider SINLCGLWKVYYILAFMW, for which the amyloid nucleation score is -2.26 ± 2.4.

In turn, CVHQIVGLTRIPFGWELSWR displayed an amyloid nucleation score of -1.62 ± 1.7.

For the substance DWCYYKRADRRTSSESSRAG, the amyloid nucleation score turned out to be 0.333 ± 0.99.

In turn, YIWSVYLLLCWHWCRMSCSG came in with an amyloid nucleation score of 1.23 ± 0.6.

ARWMVWTLESHLPDNFTMVN gave an amyloid nucleation score of -1.21 ± 1.1.

Substance TGQACAWGGSVILTVSCDRY had an amyloid nucleation score of 2.43 ± 0.12.

For the substance SHERLNQCSNFSSWQNRGGL, the amyloid nucleation score is -0.588 ± 0.73.

In the case of LPPARIFEGRSICYFVWYLP, the amyloid nucleation score is 0.232 ± 0.7.

As to WADNNTSH, the amyloid nucleation score was -0.094 ± 0.34.

Turning to QLEDAVKMGLVEFEGRSHGS, the amyloid nucleation score is 0.78 ± 0.29.

Consider SHSFPGMWTDDTSALASREK, for which the amyloid nucleation score amounted to 0.306 ± 0.59.

In the case of VLPMTGYSRLRPIYRFMFFD, the amyloid nucleation score came out at 0.273 ± 0.44.

SKSLKYICMYFQHTNSLASI showed an amyloid nucleation score of 0.241 ± 1.2.

KMFVIVWCDFDAGALGATVN displayed an amyloid nucleation score of -0.488 ± 0.58.

PSIGMVF returned an amyloid nucleation score of 1.77 ± 0.53.

Consider IKILLNWHV, for which the amyloid nucleation score was -0.628 ± 1.7.

Regarding CHNHRMYH, the amyloid nucleation score was determined as 0.072 ± 0.9.

Turning to YQWFMYVF, the amyloid nucleation score was 4.61 ± 0.11.

FCDRNIIVCSELGKGWLWLR had an amyloid nucleation score of 1.4 ± 0.25.

Substance NNTFQIVLRFSGRHIDFNRR came in with an amyloid nucleation score of 7.639 ± 0.064.

The substance LCSLVFTIRRTPPWVQSMLR returned an amyloid nucleation score of 0.096 ± 0.8.

EPSGLLFSTLGTSTYGYIQF came in with an amyloid nucleation score of 2.27 ± 0.11.

For ILYNA, the amyloid nucleation score was -0.166 ± 1.2.

With SSVYFSRFTERQKAVRETGS, the amyloid nucleation score entry is “inactive”.

Turning to PCTRHCLRLHLAFMWLILAI, the amyloid nucleation score is -0.31 ± 0.4.

Regarding RIMYSRLDYWLAYPVISERG, the amyloid nucleation score was -0.057 ± 1.4.

With MYFFGQYVCYYWEH, the amyloid nucleation score amounted to 7.381 ± 0.058.

As to TSYVMPEGFAVGFKMSM, the amyloid nucleation score came out at 0.205 ± 0.66.

SMDLLRDLSVDKWAFF yielded an amyloid nucleation score of 0.133 ± 0.33.

HMWIEFSAVLFSYDMASSNV gave an amyloid nucleation score of -0.417 ± 0.52.

Substance VTLSIYVNNSDGISR gave an amyloid nucleation score of 0.588 ± 0.4.

Regarding YYCYLLTNHPNTNGSVAFRL, the amyloid nucleation score is 0.934 ± 0.44.

Take CSLSETFPKVYFMWTQRSYV: the amyloid nucleation score was -1.36 ± 2.4.

For the origin of these results see the supplement of paper PMC12042874.
